Here are results for one molecule from patent US20150152192A1 (SAMSUNG ELECTRONICS, published 2015).

As a reminder, the Kd is the free concentration of one partner at which half of the binding sites on the other are occupied at equilibrium, for simple one-to-one binding. Low readings indicate a tighter complex, high ones a looser complex. For orientation: koff means the first-order rate constant of dissociation. For orientation: kon means a measure of how fast the partners come together. Low values mean slower complex formation, high ones faster complex formation.

The target of test [1] is T1, human c-Met/Fc fusion protein (R&D Systems) (human, UniProt P08581 25-932).
T1 construct: also called c-Met-Fc (#358-MT/CF, R&D Systems); human c-Met/Fc protein; not shown: Fc part
T1 sequence (P08581 25-932 limits assumed): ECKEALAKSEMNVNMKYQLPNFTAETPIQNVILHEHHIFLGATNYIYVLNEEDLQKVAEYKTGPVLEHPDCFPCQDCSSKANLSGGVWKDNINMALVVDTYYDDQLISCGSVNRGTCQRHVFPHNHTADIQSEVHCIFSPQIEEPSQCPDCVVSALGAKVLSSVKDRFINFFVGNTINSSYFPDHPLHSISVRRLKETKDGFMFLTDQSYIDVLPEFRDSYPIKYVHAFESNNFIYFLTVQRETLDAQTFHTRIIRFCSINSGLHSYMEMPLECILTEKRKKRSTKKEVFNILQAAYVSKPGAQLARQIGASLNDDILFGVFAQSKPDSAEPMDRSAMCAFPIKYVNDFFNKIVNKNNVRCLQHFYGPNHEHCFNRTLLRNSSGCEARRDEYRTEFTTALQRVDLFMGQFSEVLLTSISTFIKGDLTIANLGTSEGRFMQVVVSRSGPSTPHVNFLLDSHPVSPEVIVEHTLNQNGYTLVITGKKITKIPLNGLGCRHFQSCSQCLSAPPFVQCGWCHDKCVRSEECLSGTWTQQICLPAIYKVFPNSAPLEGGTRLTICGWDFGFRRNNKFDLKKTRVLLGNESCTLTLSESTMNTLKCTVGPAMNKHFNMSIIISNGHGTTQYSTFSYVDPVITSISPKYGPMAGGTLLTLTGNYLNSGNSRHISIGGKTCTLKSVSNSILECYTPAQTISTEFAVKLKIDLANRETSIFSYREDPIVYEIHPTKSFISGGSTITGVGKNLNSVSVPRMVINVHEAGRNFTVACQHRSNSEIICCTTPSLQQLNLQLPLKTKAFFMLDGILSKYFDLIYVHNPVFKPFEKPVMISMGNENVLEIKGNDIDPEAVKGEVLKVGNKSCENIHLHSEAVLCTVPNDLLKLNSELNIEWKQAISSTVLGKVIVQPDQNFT
Nature of the test: SPR, Biacore T100, bispecific antibody captured by human Fab binder on CM5 chip, c-Met-Fc flowed. As for the experimental part:
For this, a human Fab binder (GE Healthcare) was fixed on the surface of CM5 chip (#BR-1005-30, GE) according to manufacturer's manual. […] Hereto, 10 mM Glycine-HCl (pH 1.5) solution was added, to regenerate the surface. To measure the affinity, the above obtained data were fitted using BIAevaluation software (GE Healthcare, Biacore T100 evaluation software).
(In general: SPR reads the build-up and loss of mass on a sensor chip optically.)

Test [2] has as its target T2, human Ang2 polypeptide (R&D systems; Accession #O15123; SEQ ID NO: 172) (human, UniProt O15123 19-496).
T2 construct: Bought protein; also called hAng2; human Ang2 protein
T2 sequence: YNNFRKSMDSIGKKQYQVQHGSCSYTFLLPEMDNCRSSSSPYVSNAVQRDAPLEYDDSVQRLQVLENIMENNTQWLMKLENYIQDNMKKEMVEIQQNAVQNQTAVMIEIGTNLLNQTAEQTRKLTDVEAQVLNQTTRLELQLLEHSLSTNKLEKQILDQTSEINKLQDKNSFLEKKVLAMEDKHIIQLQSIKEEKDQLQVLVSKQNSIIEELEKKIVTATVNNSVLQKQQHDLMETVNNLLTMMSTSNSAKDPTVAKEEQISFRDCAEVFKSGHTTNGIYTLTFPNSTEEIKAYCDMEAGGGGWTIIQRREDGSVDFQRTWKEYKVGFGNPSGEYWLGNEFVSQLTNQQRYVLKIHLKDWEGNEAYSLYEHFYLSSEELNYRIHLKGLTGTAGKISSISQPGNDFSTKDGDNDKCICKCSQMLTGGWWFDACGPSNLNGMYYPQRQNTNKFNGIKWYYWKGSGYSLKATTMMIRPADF
Nature of the test: ELISA, human Ang2 coated, anti-human Fc-HRP; 50% binding concentration.

B1: anti-c-Met/anti-Ang2 bispecific antibody (anti-Ang2 4-H10 scFv fused to the C-terminus of anti-c-Met antibody L3-1Y-IgG2) (bispecific antibody)
heavy: EVQLVESGGGLVQPGGSLRLSCAASGFTFTDYYMSWVRQAPGKGLEWLGFIRNKANGYTTEYSASVKGRFTISRDNSKNTLYLQMNSLRAEDTAVYYCARDNWFAYWGQGTLVTVSSASTKGPSVFPLAPCSRSTSESTAALGCLVKDYFPEPVTVSWNSGALTSGVHTFPAVLQSSGLYSLSSVVTVPSSNFGTQTYTCNVDHKPSNTKVDKTVERKCCVECPPCPAPPVAGPSVFLFPPKPKDTLMISRTPEVTCVVVDVSHEDPEVQFNWYVDGVEVHNAKTKPREEQFNSTFRVVSVLTVVHQDWLNGKEYKCKVSNKGLPAPIEKTISKTKGQPREPQVYTLPPSREEMTKNQVSLTCLVKGFYPSDIAVEWESNGQPENNYKTTPPMLDSDGSFFLYSKLTVDKSRWQQGNVFSCSVMHEALHNHYTQKSLSLSPGGGGGSGGGGSEVQLLESGGGLVQPGGSLRLSCAASGFTFSSYDMSWVRLAPGKGLEWVSLISPDSSSIYYADSVKGRFTISRDNSKNTLYLQMNSLRAEDTAVYYCAKDLISFWRGGFDYWGQGTLVTVSSGGGGSGGGGSGSGGSQSVLTQPPSASGTPGQRVTISCSGSSSNIGSNYVNWYQQLPGTAPKLLIYSDSHRPSGVPDRFSGSKSGTSASLAISGLRSEDEADYYCGAWDDSLSGYVFGGGTKLTVLGQAGQHHHHHHGAYPYDVPDYAS
light: DIQMTQSPSSLSASVGDRVTITCKSSQSLLASGNQNNYLAWYQQKPGKAPKMLIIWASTRVSGVPSRFSGSGSGTDFTLTISSLQPEDFATYYCQQSYSRPYTFGQGTKVEIKRTVAAPSVFIFPPSDEQLKSGTASVVCLLNNFYPREAKVQWKVDNALQSGNSQESVTEQDSKDSTYSLSSTLTLSKADYEKHKVYACEVTHQGLSSPVTKSFNRGEC
notes: also called BS ab; BS Ab
As for B1, in test [1], the Kd is 0.09 nM, the dissociation rate constant (koff) turned out to be 8.2e-05 s⁻¹ and the kon was found to be 850000 M⁻¹ s⁻¹. This molecule also had a Kd in test [2] of 31 nM.
